From publication PMC3386215 (Molecular Biology of the Cell, 2012) come the findings set out here.

The assay concerns the target T1, His-Msb3 (S. cerevisiae, UniProt P48566 1-633).
T1 sequence: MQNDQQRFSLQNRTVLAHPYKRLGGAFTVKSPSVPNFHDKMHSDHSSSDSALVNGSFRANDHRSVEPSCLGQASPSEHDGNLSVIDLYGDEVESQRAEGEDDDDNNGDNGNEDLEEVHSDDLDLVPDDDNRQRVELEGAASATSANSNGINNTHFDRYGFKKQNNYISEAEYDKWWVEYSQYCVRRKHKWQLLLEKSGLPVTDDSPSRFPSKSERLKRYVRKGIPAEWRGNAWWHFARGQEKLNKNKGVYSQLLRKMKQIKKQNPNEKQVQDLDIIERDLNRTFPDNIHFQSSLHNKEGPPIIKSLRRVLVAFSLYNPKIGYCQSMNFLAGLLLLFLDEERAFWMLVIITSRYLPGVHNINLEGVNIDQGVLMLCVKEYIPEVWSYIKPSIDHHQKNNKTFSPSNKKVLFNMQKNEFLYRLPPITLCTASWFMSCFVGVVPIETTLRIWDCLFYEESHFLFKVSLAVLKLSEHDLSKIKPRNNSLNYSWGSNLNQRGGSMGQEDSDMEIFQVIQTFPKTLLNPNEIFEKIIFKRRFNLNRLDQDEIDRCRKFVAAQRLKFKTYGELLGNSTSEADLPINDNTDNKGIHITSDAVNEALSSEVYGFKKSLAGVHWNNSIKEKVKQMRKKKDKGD
The assay is described as follows: pull-down.

B1: GST-Vps21 (preloaded with GDP) (enzyme)
chain: MNTSVTSIKLVLLGEAAVGKSSIVLRFVSNDFAENKEPTIGAAFLTQRVTINEHTVKFEIWDTAGQERFASLAPMYYRNAQAALVVYDVTKPQSFIKARHWVKELHEQASKDIIIALVGNKIDMLQEGGERKVAREEGEKLAEEKGLLFFETSAKTGENVNDVFLGIGEKIPLKTAEEQNSASNERESNNQRVDLNAANDGTSANSACSC
Take B1: the binding result is given as “binds”.
